# Patent US8487082B2, “Synthetic scFv analogue to the 6313/G2 (anti angiotensin II type 1 receptor) monoclonal antibody variable regions” (Queen Mary & Westfield College, priority 2008, dated 2013)
# Entries after “also recorded” stand apart in the source; their conditions may differ.
# B1: R6313/G2: murine scFv analogue of the 6313/G2 anti-AT1 receptor monoclonal antibody variable domains, SEQ ID NO:15 (protein)
# scFv: YAAQPAMAQVKLQQSGPELEKPGASVKISCKASGYSFTGYNMNWVKQSNGKSLEWIGNIDPYYGGTTYNQKFKGKATLTVDKSSSTAYMQLKSLTSEDSAVYYCAREVDYWGQGTTVTVSSGGGGSGGGGSGGGGSDIELTQSPASLAVSLGQRATISYRASKSVSTSGYSYMHWNQQKPGQPPRLLIYLVSNLESGVPARFSGSGSGTDFTLNIHPVEEEDAATYYCQHIRELTRSEGTKLEIKRAAAGAPVPY
# modifications: 12D
# Legend:
# [1] = test system: MCF-7 cells; experiment: Cell viability assay (XTT); type: cell-based; details: MCF-7, 100 nmol angiotensin II per L, XTT, 48 hours
# Description: (§1) MCF-7, T47D and MDA-MB-231 breast cancer cells were obtained from The American Tissue Culture Collection (LGC Promochem, Teddington, UK). Rat aortic smooth muscle cells (RASMC) were developed from primary culture (Barker et al., 1996). MCF-7 cells were maintained in Minimal Essential Medium (MEM), T47D and MDA-MB-231 cells in RPMI 1640 medium, and RASMC were maintained in Dulbecco's Modified Eagle's Medium (DMEM). All media were supplemented with 2 mM L-glutamine, 10% fetal bovine serum (FBS), 50 U/ml penicillin and 0.05 mg/ml streptomycin. Cells were maintained at 37° C. in a humidified atmosphere ([…], 5% CO2).
# (§2) Confluent cell monolayers were removed from tissue culture flasks using trypsin/EDTA. Cells (15×10^3 per well) were seeded into 96 well tissue culture plates containing the appropriate medium for each cell line. […] Cell viability was assessed by the ability of metabolically active cells to reduce 2,3-bis[2-Methoxy-4-nitro-5-sulphophenyl]-2H-tetrazolium-5-carboxyanilide inner salt (XTT) to the coloured formazan product. Absorbance was measured using a Multiskan Ascent microplate reader (Thermo Labsystem, Helsinki, Finland) at a wavelength of 450 nm and a reference wavelength of 630 nm. Each measurement was performed in triplicate. IC50s were calculated using a non-linear regression formula using GraphPad Prism v4.0 software (GraphPad Software Inc, San Diego Calif., USA).
# [2] = test system: MDA-MB-231 cells; experiment: Cell viability assay (XTT); type: cell-based; details: MDA-MB-231, 100 nmol angiotensin II per L, XTT, 48 hours
# Description: as §1, §2
# [3] = test system: T47D cells; experiment: Cell viability assay (XTT); type: cell-based; details: 100 nmol angiotensin II per L, XTT, 48 hours
# Description: as §1, §2
# [4] = test system: breast cancer cells; experiment: Breast cancer cell proliferation (summary statement); type: cell-based
# Description: as §2
# [5] = Body weight, aldosterone and activity of hollow fiber mice; type: in vivo, nu/nu mice
# [6] = test system: T-47D breast cancer cells; experiment: Fluorimetric invasion assay (QCM cell invasion, ECM); type: cell-based; details: for T-47D cell invasion through ECM: scFv alone, 50 and 250 nmol/L, 24 h
# Description: The method used is QCM™ Cell invasion assay (Chemicon Cat No. ECM555). This uses fluorimetric detection of cells which have broken through a reconstituted basement membrane matrix proteins (ECM) derived from the Engelbreth-Holm-Swam (EHS) mouse tumour (Repesh LA (1989) Invasion Metastasis 9: 192-208)
# ECM-coated inserts were placed in 96-well plates and 100 μl of prewarmed serum-free medium added to the interior of the inserts in order to hydrate the ECM layer over 1-2 h at room temperature. Media was removed and 150 μl of serum free medium added to the wells of the 96-well plate housing the inserts. 100 μl of medium containing 10^5 cells/per insert was then introduced. The plate was covered and incubated at 37 C in a 5% CO2/95% air humidified incubator for 24 h. After removing cells from inside the insert and rinsing with PBS, the insert was replaced into a 96-well plate containing Cell Detachment Solution and incubated at 37 C for 30 min. Cells that had invaded through the ECM to the bottom of the insert were, in this way, dislodged from the insert for subsequent lysis and measurement of fluorescence using a 480/520 filter set in a Fluostar Optima fluorimeter (BMG Labtech), according to manufacturer's instructions.
# [7] = target: T1, antigenic peptide […] (AT1 receptor) (Rattus norvegicus, UniProt P25095); experiment: Antigen ELISA during panning of scFv library; type: binding
# T1 construct: 96 well plates coated with the original antigenic peptide ([…]
# Description: The 6313/G2 mouse monoclonal antibody hybridoma was grown as previously described (Barker et at J. Mol. Endocrinol. 11 241-245 (1993)). A pool of cDNA derived from mRNA was used to obtain heavy and light chains by PCR. A linker fragment encoding (Gly4Ser)3 was used to assemble the scFv library of inserts and a phage display library was created by directionally cloning these inserts into the pCANTAB 5 E phagemid vector (Amersham Pharmacia, High Wycombe, UK). An E-tag for the expressed sequence GAPVPYPDPLEPR (SEQ ID NO: 11) was included in this vector and used in subsequent panning and purification steps. The phagemid library was then used to transform TG1 E. coli, and phagemid rescue was carried out using the M13K07 helper phage followed by several rounds of panning Positive expressing clones were identified by ELISA using 96 well plates coated with the original antigenic peptide (EDGIKRIQDD; SEQ ID NO:1) and an anti-E-tag antibody (Amersham Pharmacia) detected using an HRP-linked secondary antibody. One particular clone was taken forward for expression and purification and functional assessment on the basis of giving the highest signal in the antigen ELISA.
# [8] = target: biotinylated peptide antigen (AT1 receptor) (Rattus norvegicus, UniProt P25095); experiment: Quartz crystal microbalance binding (Attana 100); details: 9 μg/ml, 100 second injection period; listed as 12D
# Description: Data were obtained comparing the characteristics of binding of the scFv variants and IgM to immobilised peptide antigen using the Attana 100 Quartz Crystal Microbalance. This involved use of a streptavidin (0.1 mg/ml)-coated biotin “chip” (gold-plated quartz crystal in an Attana 100 Biosensor (Quartz crystal microbalance (QCM)) (Attana AB, Stockholm, Sweden). Peptide antigen corresponding to that sequence used to raise the original murine hybridoma, biotinylated at the C-terminus, was then run across the chip at a concentration of 4 μg/ml to create a binding target for scFvs and IgM that were subsequently run across the surface of the QCM chip. Attester software (Attana, Sweden) was used to monitor changes in resonance frequency of the QCM chip in response to binding of a test antibody to the antigen. The magnitude of deflection in Hz over the period of sample injection of 100 s in Hz/second was determined for each antibody at a concentration of 9 μg/ml. The rate at which the antibody was then released from the QCM chip was also measured in Hz/second from the straight-line portion of the biosensor trace as antibody gradually departed from the chip and as the resonance frequency of the chip decreased. Running buffer was PBS containing 0.005% Tween 20 (PBST) and this was also used to make antibody dilutions to give a final protein concentration of 9 μg/ml in each case. The Attana 100 was set up with a 50 μl injection loop and was running with a constant pump speed of 20 μl/min. Samples and PBST buffer controls were injected over 100 seconds giving a sample volume across the chip of 33 μl. 100 mM (6.6 μl volume) phosphoric acid solution was used to regenerate the strepavidin-antigen surface between individual experimental sample runs.
molecule,measurement,setting,value
B1,Threshold value for inhibition of cell survival (P<0.05 or better),[1],0.05 µM
same,Threshold value for inhibition of cell survival (P<0.05 or better),[2],0.05 µM
same,Threshold value for inhibition of cell survival (P<0.05 or better),[3],1.25 µM
same,IC50,"[3]; read-out: IC50, inhibition of cell survival",2.8 µM
same,breast cancer cell proliferation,[4]; in the absence of angiotensin II,no effect
same,breast cancer cell proliferation,[4]; in the presence of up to 100 nmol angiotensin II per L,significantly inhibits breast cancer cell proliferation
same,animal activity,[5]; 13 nmol/kg 2× per day,no effect
same,body weight,[5]; 13 nmol/kg 2× per day,no effect
same,circulating aldosterone concentrations,[5]; 13 nmol/kg 2× per day,no effect
same,body weights of the experimental animals,"[5]; hollow fiber mice, during the period of treatment",no changes
same,inhibition of cell invasion,"[6]; 250 nmol/L R6313/G2 with angiotensin II 100 nmol/L, 24 hour assay period",up to 25%
same,effect on T-47D cell invasion in the presence of angiotensin II,"[6]; 250 nmol/L scFv, angiotensin II 100 nmol/L",significantly more pronounced
same,T-47D cell invasion through ECM,[6],inhibits T-47D cell invasion
same,T-47D cell invasion through ECM,[6]; listed as R6313/G2 clone12D,significantly inhibits T-47D cell invasion
same,activity of clones (preliminary studies),[7],highest activity
same,"change in resonance frequency (apparent on-rate, Hz/second) compared with IgM",[8],significantly greater increases in resonance frequency; also recorded: significantly greater changes in resonance frequency
